Results: US20090286243A1 (CEDARS SINAI MEDICAL CENTER, published 2009)
Where a chain is given by its changes, count along the chain named. Numbers in names are those of the source.

T1: wild type human Kv3.3 (KCNC3) voltage-gated potassium channel subunit (human, UniProt Q14003 1-757)
T1 sequence: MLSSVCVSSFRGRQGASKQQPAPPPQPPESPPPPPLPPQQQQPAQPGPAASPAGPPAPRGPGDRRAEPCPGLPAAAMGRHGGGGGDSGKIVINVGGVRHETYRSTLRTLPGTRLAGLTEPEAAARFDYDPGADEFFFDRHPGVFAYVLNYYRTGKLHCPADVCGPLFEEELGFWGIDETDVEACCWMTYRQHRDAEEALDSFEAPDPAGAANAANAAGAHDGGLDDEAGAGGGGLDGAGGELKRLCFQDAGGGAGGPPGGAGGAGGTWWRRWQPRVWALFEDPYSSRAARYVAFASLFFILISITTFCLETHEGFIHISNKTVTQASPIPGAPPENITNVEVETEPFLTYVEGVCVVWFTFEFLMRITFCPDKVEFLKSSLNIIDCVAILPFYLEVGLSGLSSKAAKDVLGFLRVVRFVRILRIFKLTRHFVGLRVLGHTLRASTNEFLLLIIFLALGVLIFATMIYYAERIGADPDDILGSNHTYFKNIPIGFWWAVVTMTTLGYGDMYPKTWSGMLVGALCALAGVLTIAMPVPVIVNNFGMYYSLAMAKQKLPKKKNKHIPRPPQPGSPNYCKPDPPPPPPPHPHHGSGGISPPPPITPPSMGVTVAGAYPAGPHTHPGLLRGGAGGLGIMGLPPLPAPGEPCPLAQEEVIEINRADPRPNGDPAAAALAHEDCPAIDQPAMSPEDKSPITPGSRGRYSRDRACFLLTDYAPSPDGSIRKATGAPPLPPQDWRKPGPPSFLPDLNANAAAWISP

B1: Kv3.3 R423H mutant subunit (other)
chain: T1 sequence with R423H
B2: Kv3.3 R366H mutant subunit (other)
chain: T1 sequence with R366H

Biological target: T1, wild type human Kv3.3 (KCNC3) …
Experiment: cell-based or functional assay

| Binder | current amplitudes measured at +60 mV, 1:1 expression ratio of wild type and R423H, Xenopus oocytes | current amplitudes, 1:1 expression ratio of wild type and R366H, Xenopus oocytes |
| --- | --- | --- |
| B1 | ~20 % of wild type expressed alone | – |
| B2 | – | ~50 % of wild type expressed alone |
